Reference: the Human Domainome abundance scans (Beltran et al. 2025)

B1: Retinoic acid receptor beta, residues 85 to 161; numbered along this chain, P10826 (parent)
chain: YKPCFVCQDKSSGYHYGVSACEGCKGFFRRSIQKNMIYTCHRDKNCVINKVTRNRCQYCRLQKCFEVGMSKESVRND

Variants of: B1
Assay: abundance fitness (aPCA) (normalised: wild type 0, dead -1); higher = more abundant; growth selection in yeast, the domain comes from the species named
Conditions: Homo sapiens

Abundance fitness of substitutions, site by site:
Q33: M 0.136, R -0.037, K -0.016, H -0.175, E -0.017, F -0.148, P -0.773, W -0.097
C21: M -0.751, E -0.575, I -0.89, A -0.809, N -0.501, Q -0.93, K -0.91, S -0.933, T -0.98, V -0.881, G -0.76, W -0.839, D -0.904, R -0.666, L -0.752, Y -0.885, F -1.14
M36: T 0.051, R -0.064, P -0.216, F -0.4, V 0.072, I -0.239, W -0.127, L 0.053, A 0.132, C 0.15, K 0.01, S -0.002, N 0.009, E 0.124, G -0.141, Q 0.089, H -0.025
G26: Q -0.11, R -0.481, K -0.49, A -0.021, V -0.121, F -0.193, D 0.162, C -0.107, L -0.265, N 0.246, W -0.862, T -0.024, H -0.109, S -0.254, Y -0.467, M -0.396, I -0.078, E 0.107
R29: I 0.069, N 0.145, E 0.167, Q 0.091, D -0.079, T 0.211, Y -0.339, H 0.162, V 0.084, L 0.026, S 0.098, P -0.77, A 0.072, W 0.011, K -0.092
V18: Y -0.29, T 0.103, S -0.165
G23: K -0.288, P 0.072, W -0.138, R -0.395, T -0.008, A 0.016, I -0.282, S 0.114, H -0.114, N -0.063, E 0.231, V -0.149, D 0.228, F -0.304, Q 0.057, M -0.227, C 0.108, Y -0.452
T39: F 0.105, C -0.047, H 0.029, A -0.017, D 0.078, K 0.056, E -0.025, G -0.156
R30: L -1.02, V -1.02, A -0.935, Q -0.311, H -0.172, W -0.647, E 0.142, D 0.234, K 0.152, T -0.707, C -0.694, G -0.702, S -0.644
S19: P -0.045, E 0.017, F -0.09, R -0.121, M -0.003, W 0.024, A 0.011, T 0.02, N -0.095, D -0.285, Y -0.048, L -0.046, C -0.088, K -0.21, V 0.131, Q 0.049, I 0.066, H -0.032
K34: Y -0.007, N 0.089, V -0.145, G 0.078, I -0.371, P -0.084, W 0.05, T -0.06, R -0.122, E 0.169, M 0.104, L 0.074, F 0.014, H -0.146, C -0.05, A 0.003, D 0.33
C24: T -0.736, P -1.06, L -0.624, Y -0.309, R -0.793, W -0.955, E -0.842, M -0.817, A -1.03, K -0.89, H -0.896, S -0.793, F -0.577, N -1.07, D -0.47
